From PMC3050036 come the findings set out here.

The assay concerns the target presenilin-1 (wild-type PS1) (UniProt P49768). Nature of the assay: FRET or BRET.

In the case of “V5-tagged ubiquilin-1 transcript variant 3 (TV3) (natural protein)”, the Alexa 430 donor lifetime with Cy3 acceptor on PS1 CT is 1350 psec and the FRET strength amounted to 0.3.
